Source: the supplement of paper PMC7877785
± gives the uncertainty stated by the source.

Experiment: self-splicing fitness, log relative to wild type (ln ratio); higher = more splicing; Tetrahymena group I intron in knt gene, E. coli kanamycin selection, DiMSum; sequences stand for … in CUCUCU…GGAGGGAAAAGUUAUCAGGCAUGCACCUGGUAGCUAGUCUUUAAACCAAUAGAUUGCAUCGGUUUAAAAGGCAAGACCGUCAAAUUGCGGGAAAGGGGUCAACAGCCGUUCAGUACCAAGUCUCAGGGGAAACUUUGAGAUGGCCUUGCAAAGGGUAUGGUAAUAAGCUGACGGACAUGGUCCUAACCACGCAGCCAAGUCCUAAGUCAACAGAUCUUCUGUUGAUAUGGAUGCAGUUCACAGACUAAAUGUCGGUCGGGGAAGAUGUAUUCUUCUCAUAAGAUAUAGUCGGACCUCUCCUUAAUGGGAGCUAGCGGAUGAAGUGAUGCAACACUGGAGCCGCUGGGAACUAAUUUGUAUGCGAAAGUAUAUUGAUUAGUUUUGGAGUACUCGUGGUCG
Outline: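 Library with all eight P1ex-region intron nucleotides randomised, intron inside the knt kanamycin-resistance gene on pET-22b(+), in E. coli BL21(DE3). Cells grew overnight at 37°C or 30°C on LB agar with or without 25 μg/mL kanamycin (plus 100 μg/mL carbenicillin, 50 μM IPTG, 0.2% rhamnose), in six replicate transformations. Pooled colonies were amplicon-sequenced on Illumina HiSeq 2500. DiMSum fitness is the error-weighted combination of wild-type-normalised replicate fold changes, kanamycin versus none.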

Sequence	self-splicing fitness (ln) (30 °C)	self-splicing fitness (ln) (37 °C)
GGUAAGCAAUAUUACGUGGU	-1.33 ± 0.29	-2.48 ± 0.21
UCGAAGCAAUAUUACGACAC	-2.44 ± 0.41	-2.26 ± 0.38
CCUUAGCAAUAUUACGCCUC	–	-2.65 ± 0.41
UACCAGCAAUAUUACGAACC	-3.08 ± 0.2	-1.05 ± 0.23
GCAGAGCAAUAUUACGGUCU	-3.54 ± 0.25	-2.39 ± 0.27
UGGCAGCAAUAUUACGUAAC	-3.2 ± 0.22	-2.16 ± 0.26
UAGUAGCAAUAUUACGGAUU	-4.06 ± 0.47	-0.834 ± 0.18
UUGAAGCAAUAUUACGGCGG	0.15 ± 0.11	0.55 ± 0.13
UCGGAGCAAUAUUACGAUAG	-3.29 ± 0.32	-2.83 ± 0.35
AGCUAGCAAUAUUACGGAUC	-1.26 ± 0.12	-1.54 ± 0.16
GAGGAGCAAUAUUACGACGA	-1.2 ± 0.13	0.494 ± 0.13
UAUUAGCAAUAUUACGCGUC	-4.05 ± 0.35	-2.57 ± 0.26
UCCCAGCAAUAUUACGGCCA	-0.679 ± 0.095	-0.115 ± 0.12
GGAGAGCAAUAUUACGCAUG	–	-0.0425 ± 0.28
UCGUAGCAAUAUUACGGCUG	-3.29 ± 0.13	-1.38 ± 0.14
GCAAAGCAAUAUUACGAUUA	-0.0977 ± 0.11	-1.13 ± 0.13
UUCCAGCAAUAUUACGUGAC	-2.56 ± 0.2	-1.89 ± 0.21
UAGCAGCAAUAUUACGCUAA	-2.07 ± 0.26	-1.73 ± 0.27
CCCAAGCAAUAUUACGUUUU	-3.95 ± 0.18	-3.26 ± 0.2
AUUGAGCAAUAUUACGAAUG	-2.9 ± 0.21	-3.15 ± 0.3
GUUCAGCAAUAUUACGUAAC	-0.462 ± 0.17	-0.994 ± 0.26
CAUUAGCAAUAUUACGUGCG	-0.965 ± 0.074	-0.237 ± 0.082
GGGCAGCAAUAUUACGUCUA	0.309 ± 0.1	-1.04 ± 0.1
AGUGAGCAAUAUUACGCUAA	–	-2.09 ± 0.26
AACAAGCAAUAUUACGUCGU	-2.18 ± 0.068	-0.677 ± 0.067

Sequence	self-splicing fitness (ln) (30 °C)	self-splicing fitness (ln) (37 °C)
GACUAGCAAUAUUACGGGGC	-4.11 ± 0.23	-1.21 ± 0.13
AUACAGCAAUAUUACGCGGU	-3.44 ± 0.21	-2.04 ± 0.18
ACUUAGCAAUAUUACGAAUA	–	-1.76 ± 0.31
UACGAGCAAUAUUACGCUGA	-3 ± 0.26	-2.02 ± 0.24
CAUGAGCAAUAUUACGCACA	-2.8 ± 0.2	-2.44 ± 0.23
CCGUAGCAAUAUUACGAUGC	-4.08 ± 0.36	-1.39 ± 0.23
AUUGAGCAAUAUUACGCCCG	-3.02 ± 0.47	–
CUGCAGCAAUAUUACGAUGA	-3.75 ± 0.22	-2.45 ± 0.23
GCCGAGCAAUAUUACGUGGG	-4.56 ± 0.42	-2.85 ± 0.27
GGCGAGCAAUAUUACGAAUG	-3.21 ± 0.18	-2.84 ± 0.2
GCACAGCAAUAUUACGCCAA	-3.77 ± 0.25	-2.56 ± 0.2
GUCGAGCAAUAUUACGCAUU	-2.45 ± 0.27	-0.95 ± 0.25
GCUAAGCAAUAUUACGGCGC	-1.55 ± 0.11	-0.159 ± 0.16
CAGAAGCAAUAUUACGGGAA	-3.21 ± 0.23	-1.37 ± 0.25
GUGCAGCAAUAUUACGUACA	–	-2.03 ± 0.34
GCAAAGCAAUAUUACGACAG	-3.2 ± 0.18	-2.68 ± 0.23
ACUGAGCAAUAUUACGACGU	-1.53 ± 0.11	-1.66 ± 0.15
CAACAGCAAUAUUACGCGGA	-1.6 ± 0.1	-1.83 ± 0.091
CGUCAGCAAUAUUACGUGCC	-0.61 ± 0.16	0.32 ± 0.19
ACCGAGCAAUAUUACGCUCG	-3.22 ± 0.32	-1.61 ± 0.2
GAGCAGCAAUAUUACGAGUU	-2.48 ± 0.13	-1.1 ± 0.13
CCGGAGCAAUAUUACGUAUU	–	-1.05 ± 0.21
UGAAAGCAAUAUUACGCGCU	-0.84 ± 0.11	0.297 ± 0.14
UCCGAGCAAUAUUACGUGCU	-3.32 ± 0.26	-2.61 ± 0.29
GUAGAGCAAUAUUACGGCGC	-0.386 ± 0.18	-0.378 ± 0.22

Sequence	self-splicing fitness (ln) (30 °C)	self-splicing fitness (ln) (37 °C)
CACAAGCAAUAUUACGAGGU	-3.59 ± 0.17	-2.2 ± 0.18
ACUCAGCAAUAUUACGAUUA	-0.552 ± 0.065	-0.431 ± 0.067
CUGCAGCAAUAUUACGCCAU	-3.9 ± 0.2	-3.42 ± 0.17
AACAAGCAAUAUUACGGGGA	-3.21 ± 0.14	-0.987 ± 0.087
ACACAGCAAUAUUACGCCUC	-2.92 ± 0.18	-1.73 ± 0.2
CUUAAGCAAUAUUACGUGCA	-2.91 ± 0.19	-1.34 ± 0.18
GCAUAGCAAUAUUACGGAAU	-2.21 ± 0.16	-1.84 ± 0.23
CGACAGCAAUAUUACGGGAA	-3.44 ± 0.17	-1.92 ± 0.099
ACACAGCAAUAUUACGCGUA	-1.89 ± 0.078	-1.2 ± 0.074
UGUUAGCAAUAUUACGCAGC	–	-2.47 ± 0.38
CACAAGCAAUAUUACGGGAU	-3.51 ± 0.14	-1.41 ± 0.097
UUUUAGCAAUAUUACGUGGA	-2.5 ± 0.18	-0.992 ± 0.11
ACGGAGCAAUAUUACGUCUC	-4.93 ± 0.32	-1.94 ± 0.15
CUCCAGCAAUAUUACGUUAG	-2.15 ± 0.094	-1.51 ± 0.12
UCUGAGCAAUAUUACGUUUG	-4.82 ± 0.29	-1.81 ± 0.15
CGCUAGCAAUAUUACGUCGG	-1.6 ± 0.075	-0.631 ± 0.12
GUACAGCAAUAUUACGAUAA	-1.95 ± 0.12	-0.911 ± 0.13
CAACAGCAAUAUUACGUAGG	-0.482 ± 0.055	0.249 ± 0.069
AUAGAGCAAUAUUACGCGAC	-2.44 ± 0.18	-1.3 ± 0.17
AGAUAGCAAUAUUACGGUUG	-3.03 ± 0.17	-2.57 ± 0.29
UAAAAGCAAUAUUACGCGUG	-0.88 ± 0.049	-0.0179 ± 0.066
CUUUAGCAAUAUUACGAGGU	-3.4 ± 0.23	-2.3 ± 0.27
CUAGAGCAAUAUUACGGAGG	-1.49 ± 0.13	-1.98 ± 0.16
AGAAAGCAAUAUUACGACAG	-2.36 ± 0.11	-0.954 ± 0.11
GUAUAGCAAUAUUACGGGAA	–	-2.54 ± 0.4

Sequence	self-splicing fitness (ln) (30 °C)	self-splicing fitness (ln) (37 °C)
ACGCAGCAAUAUUACGACCC	-1.66 ± 0.18	-0.0893 ± 0.28
CAACAGCAAUAUUACGAAAA	-2.73 ± 0.3	-1.38 ± 0.26
CAAUAGCAAUAUUACGUACC	-4.73 ± 0.32	-3.09 ± 0.32
AUGAAGCAAUAUUACGAAGG	-2.57 ± 0.18	-0.569 ± 0.19
ACCCAGCAAUAUUACGUAUC	-2.25 ± 0.077	-1.63 ± 0.092
CAAUAGCAAUAUUACGCCUU	-2.1 ± 0.23	-0.997 ± 0.24
UAAGAGCAAUAUUACGUGUG	-2.99 ± 0.18	-1.4 ± 0.14
UUAUAGCAAUAUUACGCCUU	-2.91 ± 0.26	-0.144 ± 0.2
CGAAAGCAAUAUUACGUAAG	-0.262 ± 0.049	-0.000374 ± 0.07
GAGUAGCAAUAUUACGCAGC	–	-2.81 ± 0.34
CAGGAGCAAUAUUACGGCAG	-1.41 ± 0.083	-1.27 ± 0.09
GGGAAGCAAUAUUACGUCUG	0.292 ± 0.099	-0.174 ± 0.12
GAUAAGCAAUAUUACGAUAG	-1.66 ± 0.15	-1.95 ± 0.2
CCAGAGCAAUAUUACGGCUG	-1.9 ± 0.083	-1 ± 0.12
GCAAAGCAAUAUUACGCACA	-0.917 ± 0.12	-0.182 ± 0.14
GCCAAGCAAUAUUACGAUAA	-3.09 ± 0.17	-1.6 ± 0.2
AUUUAGCAAUAUUACGACUU	-0.092 ± 0.059	0.239 ± 0.067
GUAGAGCAAUAUUACGACUG	-1.22 ± 0.15	-1.12 ± 0.24
AACCAGCAAUAUUACGUAAA	-1.13 ± 0.076	-0.76 ± 0.084
UCCGAGCAAUAUUACGCAUU	-2.2 ± 0.19	-3.08 ± 0.37
GGCAAGCAAUAUUACGUGGG	-3.42 ± 0.13	-1.85 ± 0.1
GCCCAGCAAUAUUACGAUCC	-0.561 ± 0.13	-0.336 ± 0.19
UGCGAGCAAUAUUACGUUAG	-2.68 ± 0.27	-2.01 ± 0.33
